Source: the supplement of paper PMC5998384

Experiments:
HeLa Kyoto [1] = test: thermal stability score vs G1/S (z-score of summed log2 fold changes over temperatures); higher = more thermally stable than in G1/S
HeLa Kyoto [2] = test: melting temperature (median over replicates), in situ; higher = more thermally stable
HeLa Kyoto [3] = test: solubility in G1/S (NP-40 vs SDS abundance) (log2 ratio); higher = more soluble; conditions: cell cycle stage: G1/S
HeLa Kyoto [4] = test: solubility change mitosis vs G1/S (difference of NP-40 vs SDS log2 ratios) (log2 ratio difference); higher = more soluble in mitosis
[5] = cell cycle stage: early G1 (4.5 h after nocodazole release)
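Wherever melting temperature (median over replicates), in situ is given: HeLa Kyoto cells synchronized by double thymidine or nocodazole block, proteins quantified by TMT10plex mass spectrometry, three independent biological replicates.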
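Wherever solubility change mitosis vs G1/S (difference of NP-40 vs SDS log2 ratios) is given: synchronized HeLa Kyoto cells (double thymidine block for G1/S, nocodazole release for mitosis), protein amounts in NP-40 versus SDS lysates quantified by mass spectrometry, three biological replicates.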
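Wherever solubility in G1/S (NP-40 vs SDS abundance) is given: HeLa Kyoto cells arrested at G1/S by double thymidine block, proteins quantified by TMT10plex mass spectrometry in mild NP-40 versus SDS extracts, three biological replicates.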
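Wherever thermal stability score vs G1/S (z-score of summed log2 fold changes over temperatures) is given: synchronized HeLa Kyoto cells, proteins quantified by TMT10plex mass spectrometry, three biological replicates, mitosis taken 0.5 h after nocodazole release, G1/S directly after double thymidine block.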

Substance | thermal stability score (HeLa Kyoto [1]; [5]) | thermal stability score (HeLa Kyoto [1]; cell cycle stage: mitosis) | melting temperature (HeLa Kyoto [2]; cell cycle stage: G1/S) | melting temperature (HeLa Kyoto [2]; cell cycle stage: mitosis) | solubility in G1/S (log2) (HeLa Kyoto [3]) | solubility change mitosis (log2) (HeLa Kyoto [4])
MAALTTLFKYIDENQDRYIKKLAKWVAIQSVSAWPEKRGEIRRMMEVAAADVKQLGGSVELVDIGKQKLPDGSEIPLPPILLGRLGSDPQKKTVCIYGHLDVQPAALEDGWDSEPFTLVERDGKLYGRGSTDDKGPVAGWINALEAYQKTGQEIPVNVRFCLEGMEESGSEGLDELIFARKDTFFKDVDYVCISDNYWLGKKKPCITYGLRGICYFFIEVECSNKDLHSGVYGGSVHEAMTDLILLMGSLVDKRGNILIPGINEAVAAVTEEEHKLYDDIDFDIEEFAKDVGAQILLHSHKKDILMHRWRYPSLSLHGIEGAFSGSGAKTVIPRKVVGKFSIRLVPNMTPEVVGEQVTSYLTKKFAELRSPNEFKVYMGHGGKPWVSDFSHPHYLAGRRAMKTVFGVEPDLTREGGSIPVTLTFQEATGKNVMLLPVGSADDGAHSQNEKLNRYNYIEGTKMLAAYLYEVSQLKD [CNDP2] | -6.23 | -11.6 | 54.4 °C | 53.4 °C | 0.253 | -0.148
MAKTYDYLFKLLLIGDSGVGKTCVLFRFSEDAFNSTFISTIGIDFKIRTIELDGKRIKLQIWDTAGQERFRTITTAYYRGAMGIMLVYDITNEKSFDNIRNWIRNIEEHASADVEKMILGNKCDVNDKRQVSKERGEKLALDYGIKFMETSAKANINVENAFFTLARDIKAKMDKKLEGNSPQGSNQGVKITPDQQKRSSFFRCVLL [RAB8A] | 2.59 | 1.39 | 56.7 °C | 55.4 °C | -0.0996 | -0.103
MSYGPLDMYRNPGPSGPQLRDFSSIIQTCSGNIQRISQATAQIKNLMSQLGTKQDSSKLQENLQQLQHSTNQLAKETNELLKELGSLPLPLSTSEQRQQRLQKERLMNDFSAALNNFQAVQRRVSEKEKESIARARAGSRLSAEERQREEQLVSFDSHEEWNQMQSQEDEVAITEQDLELIKERETAIRQLEADILDVNQIFKDLAMMIHDQGDLIDSIEANVESSEVHVERATEQLQRAAYYQKKSRKKMCILVLVLSVIILILGLIIWLVYKTK [STX12] | -1.25 | -1.93 | 53.9 °C | 54.3 °C | -0.121 | 0.0226
MECLRSLPCLLPRAMRLPRRTLCALALDVTSVGPPVAACGRRANLIGRSRAAQLCGPDRLRVAGEVHRFRTSDVSQATLASVAPVFTVTKFDKQGNVTSFERKKTELYQELGLQARDLRFQHVMSITVRNNRIIMRMEYLKAVITPECLLILDYRNLNLEQWLFRELPSQLSGEGQLVTYPLPFEFRAIEALLQYWINTLQGKLSILQPLILETLDALVDPKHSSVDRSKLHILLQNGKSLSELETDIKIFKESILEILDEEELLEELCVSKWSDPQVFEKSSAGIDHAEEMELLLENYYRLADDLSNAARELRVLIDDSQSIIFINLDSHRNVMMRLNLQLTMGTFSLSLFGLMGVAFGMNLESSLEEDHRIFWLITGIMFMGSGLIWRRLLSFLGRQLEAPLPPMMASLPKKTLLADRSMELKNSLRLDGLGSGRSILTNR [MRS2] | -1.88 | -2.56 | 55.4 °C | 54.5 °C | -0.297 | 0.124
MGQSGRSRHQKRARAQAQLRNLEAYAANPHSFVFTRGCTGRNIRQLSLDVRRVMEPLTASRLQVRKKNSLKDCVAVAGPLGVTHFLILSKTETNVYFKLMRLPGGPTLTFQVKKYSLVRDVVSSLRRHRMHEQQFAHPPLLVLNSFGPHGMHVKLMATMFQNLFPSINVHKVNLNTIKRCLLIDYNPDSQELDFRHYSIKVVPVGASRGMKKLLQEKFPNMSRLQDISELLATGAGLSESEAEPDGDHNITELPQAVAGRGNMRAQQSAVRLTEIGPRMTLQLIKVQEGVGEGKVMFHSFVSKTEEELQAILEAKEKKLRLKAQRQAQQAQNVQRKQEQREAHRKKSLEGMKKARVGGSDEEASGIPSRTASLELGEDDDEQEDDDIEYFCQAVGEAPSEDLFPEAKQKRLAKSPGRKRKRWEMDRGRGRLCDQKFPKTKDKSQGAQARRGPRGASRDGGRGRGRGRPGKRVA [PPAN] | -0.721 | -2.53 | 52.2 °C | 52 °C | -1.97 | 1.07
MGPAPAGEQLRGATGEPEVMEPALEGTGKEGKKASSRKRTLAEPPAKGLLQPVKLSRAELYKEPTNEELNRLRETEILFHSSLLRLQVEELLKEVRLSEKKKDRIDAFLREVNQRVVRVPSVPETELTDQAWLPAGVRVPLHQVPYAVKGCFRFLPPAQVTVVGSYLLGTCIRPDINVDVALTMPREILQDKDGLNQRYFRKRALYLAHLAHHLAQDPLFGSVCFSYTNGCHLKPSLLLRPRGKDERLVTVRLHPCPPPDFFRPCRLLPTKNNVRSAWYRGQSPAGDGSPEPPTPRYNTWVLQDTVLESHLQLLSTILSSAQGLKDGVALLKVWLRQRELDKGQGGFTGFLVSMLVVFLVSTRKIHTTMSGYQVLRSVLQFLATTDLTVNGISLCLSSDPSLPALADFHQAFSVVFLDSSGHLNLCADVTASTYHQVQHEARLSMMLLDSRADDGFHLLLMTPKPMIRAFDHVLHLRPLSRLQAACHRLKLWPELQDNGGDYVSAALGPLTTLLEQGLGARLNLLAHSRPPVPEWDISQDPPKHKDSGTLTLGLLLRPEGLTSVLELGPEADQPEAAKFRQFWGSRSELRRFQDGAIREAVVWEAASMSQKRLIPHQVVTHLLALHADIPETCVHYVGGPLDALIQGLKETSSTGEEALVAAVRCYDDLSRLLWGLEGLPLTVSAVQGAHPVLRYTEVFPPTPVRPAFSFYETLRERSSLLPRLDKPCPAYVEPMTVVCHLEGSGQWPQDAEAVQRVRAAFQLRLAELLTQQHGLQCRATATHTDVLKDGFVFRIRVAYQREPQILKEVQSPEGMISLRDTAASLRLERDTRQLPLLTSALHGLQQQHPAFSGVARLAKRWVRAQLLGEGFADESLDLVAAALFLHPEPFTPPSSPQVGFLRFLFLVSTFDWKNNPLFVNLNNELTVEEQVEIRSGFLAARAQLPVMVIVTPQDRKNSVWTQDGPSAQILQQLVVLAAEALPMLEKQLMDPRGPGDIRTVFRPPLDIYDVLIRLSPRHIPRHRQAVDSPAASFCRGLLSQPGPSSLMPVLGYDPPQLYLTQLREAFGDLALFFYDQHGGEVIGVLWKPTSFQPQPFKASSTKGRMVMSRGGELVMVPNVEAILEDFAVLGEGLVQTVEARSERWTV [NOL6] | -1.55 | -1.79 | 52.4 °C | 51.4 °C | -1.58 | 0.851
MASGGSGGVSVPALWSEVNRYGQNGDFTRALKTVNKILQINKDDVTALHCKVVCLIQNGSFKEALNVINTHTKVLANNSLSFEKAYCEYRLNRIENALKTIESANQQTDKLKELYGQVLYRLERYDECLAVYRDLVRNSQDDYDEERKTNLSAVVAAQSNWEKVVPENLGLQEGTHELCYNTACALIGQGQLNQAMKILQKAEDLCRRSLSEDTDGTEEDPQAELAIIHGQMAYILQLQGRTEEALQLYNQIIKLKPTDVGLLAVIANNIITINKDQNVFDSKKKVKLTNAEGVEFKLSKKQLQAIEFNKALLAMYTNQAEQCRKISASLQSQSPEHLLPVLIQAAQLCREKQHTKAIELLQEFSDQHPENAAEIKLTMAQLKISQGNISKACLILRSIEELKHKPGMVSALVTMYSHEEDIDSAIEVFTQAIQWYQNHQPKSPAHLSLIREAANFKLKYGRKKEAISDLQQLWKQNPKDIHTLAQLISAYSLVDPEKAKALSKHLPSSDSMSLKVDVEALENSAGATYIRKKGGKVTGDSQPKEQGQGDLKKKKKKKKGKLPKNYDPKVTPDPERWLPMRERSYYRGRKKGKKKDQIGKGTQGATAGASSELDASKTVSSPPTSPRPGSAATVSASTSNIIPPRHQKPAGAPATKKKQQQKKKKGGKGGW [SRP72] | -0.0233 | 0.35 | 50.5 °C | 49.7 °C | -0.278 | 0.328
MSPVLHFYVRPSGHEGAAPGHTRRKLQGKLPELQGVETELCYNVNWTAEALPSAEETKKLMWLFGCPLLLDDVARESWLLPGSNDLLLEVGPRLNFSTPTSTNIVSVCRATGLGPVDRVETTRRYRLSFAHPPSAEVEAIALATLHDRMTEQHFPHPIQSFSPESMPEPLNGPINILGEGRLALEKANQELGLALDSWDLDFYTKRFQELQRNPSTVEAFDLAQSNSEHSRHWFFKGQLHVDGQKLVHSLFESIMSTQESSNPNNVLKFCDNSSAIQGKEVRFLRPEDPTRPSRFQQQQGLRHVVFTAETHNFPTGVCPFSGATTGTGGRIRDVQCTGRGAHVVAGTAGYCFGNLHIPGYNLPWEDPSFQYPGNFARPLEVAIEASNGASDYGNKFGEPVLAGFARSLGLQLPDGQRREWIKPIMFSGGIGSMEADHISKEAPEPGMEVVKVGGPVYRIGVGGGAASSVQVQGDNTSDLDFGAVQRGDPEMEQKMNRVIRACVEAPKGNPICSLHDQGAGGNGNVLKELSDPAGAIIYTSRFQLGDPTLNALEIWGAEYQESNALLLRSPNRDFLTHVSARERCPACFVGTITGDRRIVLVDDRECPVRRNGQGDAPPTPLPTPVDLELEWVLGKMPRKEFFLQRKPPMLQPLALPPGLSVHQALERVLRLPAVASKRYLTNKVDRSVGGLVAQQQCVGPLQTPLADVAVVALSHEELIGAATALGEQPVKSLLDPKVAARLAVAEALTNLVFALVTDLRDVKCSGNWMWAAKLPGEGAALADACEAMVAVMAALGVAVDGGKDSLSMAARVGTETVRAPGSLVISAYAVCPDITATVTPDLKHPEGRGHLLYVALSPGQHRLGGTALAQCFSQLGEHPPDLDLPENLVRAFSITQGLLKDRLLCSGHDVSDGGLVTCLLEMAFAGNCGLQVDVPVPRVDVLSVLFAEEPGLVLEVQEPDLAQVLKRYRDAGLHCLELGHTGEAGPHAMVRVSVNGAVVLEEPVGELRALWEETSFQLDRLQAEPRCVAEEERGLRERMGPSYCLPPTFPKASVPREPGGPSPRVAILREEGSNGDREMADAFHLAGFEVWDVTMQDLCSGAIGLDTFRGVAFVGGFSYADVLGSAKGWAAAVTFHPRAGAELRRFRKRPDTFSLGVCNGCQLLALLGWVGGDPNEDAAEMGPDSQPARPGLLLRHNLSGRYESRWASVRVGPGPALMLRGMEGAVLPVWSAHGEGYVAFSSPELQAQIEARGLAPLHWADDDGNPTEQYPLNPNGSPGGVAGICSCDGRHLAVMPHPERAVRPWQWAWRPPPFDTLTTSPWLQLFINARNWTLEGSC [PFAS] | -3.18 | -3.7 | 51.9 °C | 51.5 °C | 0.146 | -0.0731
MCGIFAYMNYRVPRTRKEIFETLIKGLQRLEYRGYDSAGVAIDGNNHEVKERHIQLVKKRGKVKALDEELYKQDSMDLKVEFETHFGIAHTRWATHGVPSAVNSHPQRSDKGNEFVVIHNGIITNYKDLRKFLESKGYEFESETDTETIAKLIKYVFDNRETEDITFSTLVERVIQQLEGAFALVFKSVHYPGEAVATRRGSPLLIGVRSKYKLSTEQIPILYRTCTLENVKNICKTRMKRLDSSACLHAVGDKAVEFFFASDASAIIEHTNRVIFLEDDDIAAVADGKLSIHRVKRSASDDPSRAIQTLQMELQQIMKGNFSAFMQKEIFEQPESVFNTMRGRVNFETNTVLLGGLKDHLKEIRRCRRLIVIGCGTSYHAAVATRQVLEELTELPVMVELASDFLDRNTPVFRDDVCFFISQSGETADTLLALRYCKDRGALTVGVTNTVGSSISRETDCGVHINAGPEIGVASTKAYTSQFISLVMFGLMMSEDRISLQNRRQEIIRGLRSLPELIKEVLSLEEKIHDLALELYTQRSLLVMGRGYNYATCLEGALKIKEITYMHSEGILAGELKHGPLALIDKQMPVIMVIMKDPCFAKCQNALQQVTARQGRPIILCSKDDTESSKFAYKTIELPHTVDCLQGILSVIPLQLLSFHLAVLRGYDVDFPRNLAKSVTVE [GFPT2] | -1.27 | 0.586 | 54.3 °C | 53.9 °C | -0.201 | -0.124
ZCCHC6 | 1.03 | 2.02 | 49.9 °C | 49.3 °C | -0.226 | 0.0648
